We go through 21 molecules from patent publication US20230192896A1 (published 2023).

Sequences and labels used below:
T1: FX zymogen (UniProt P00742 41-179; P00742 183-488)
T1 chain 1: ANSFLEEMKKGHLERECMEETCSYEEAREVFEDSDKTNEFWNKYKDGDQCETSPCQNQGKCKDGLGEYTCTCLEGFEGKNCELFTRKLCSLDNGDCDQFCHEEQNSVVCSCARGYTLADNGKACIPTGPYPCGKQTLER
T1 chain 2: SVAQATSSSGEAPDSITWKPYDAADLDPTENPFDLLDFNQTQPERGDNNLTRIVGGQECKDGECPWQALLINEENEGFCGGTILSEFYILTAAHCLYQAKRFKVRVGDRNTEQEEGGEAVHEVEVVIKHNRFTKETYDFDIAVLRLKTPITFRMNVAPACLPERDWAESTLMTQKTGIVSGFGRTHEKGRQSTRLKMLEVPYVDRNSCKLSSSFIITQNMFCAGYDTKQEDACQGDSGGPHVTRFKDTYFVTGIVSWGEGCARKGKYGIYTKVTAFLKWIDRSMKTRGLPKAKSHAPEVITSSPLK

B1: BIIB-12-935 (antibody, V domains shown)
VH: QVQLVESGGGVVQPGRSLRLSCAASGFTFSSYGMHWVRQAPGKGLEWVAVISYDGSNKYYADSVKGRFTISRDNSKNTLYLQMNSLRAEDTAVYYCARELEYGHYGMDVWGQGTTVTVSS
VL: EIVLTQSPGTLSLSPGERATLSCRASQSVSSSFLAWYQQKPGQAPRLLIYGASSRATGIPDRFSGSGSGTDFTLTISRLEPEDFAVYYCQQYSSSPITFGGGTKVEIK
B2: BIIB-12-1325 (antibody, V domains shown)
VH: QVQLVQSGAEVKKPGASVKVSCKASGYTFTSYYMVWVRQAPGQGLEWMGIINPSGGSTSYAQKFQGRVTMTRDTSTSTVYMELSSLRSEDTAVYYCARGGRYMLDPWGQGTLVTVSS
VL: DIQMTQSPSTLSASVGDRVTITCRASQSISSWLAWYQQKPGKAPKLLIYKASSLESGVPSRFSGSGSGTEFTLTISSLQPDDFATYYCQQSNRYPRTFGGGTKVEIK
B3: BIIB-12-1292 (antibody, V domains shown)
VH: QVQLVQSGAEVKKPGASVKVSCKASGYTFTSYYIHWVRQAPGQGLEWMGIINPSGGSTSYAQKFQGRVTMTRDTSTSTVYMELSSLRSEDTAVYYCARDPGRRQSSGFDYWGQGTLVTVSS
VL: EIVMTQSPATLSLSPGERATLSCRASQSVSSYLAWYQQKPGQAPRLLIYDSSNRATGIPARFSGSGSGTDFTLTISSLEPEDFAVYYCQQRLNFPFTFGGGTKVEIK
B4: BIIB-12-892 (antibody, V domains shown)
VH: QVQLVQSGAEVKKPGASVKVSCKASGYTFTSYYMHWVRQAPGQGLEWMGIINPSGGSTSYAQKFQGRVTMTRDTSTSTVYMELSSLRSEDTAVYYCARGLGRRTPTAFDIWGQGTMVTVSS
VL: EIVLTQSPATLSLSPGERATLSCRASQSVSSYLAWYQQKPGQAPRLLIYDASNRATGIPARFSGSGSGTDFTLTISSLEPEDFAVYYCQQRLNLPLTFGGGTKVEIK
B5: BIIB-12-1297 (antibody, V domains shown)
VH: QVQLVESGGGVVQPGRSLRLSCAASGFTFSSYGMHWVRQAPGKGLEWVAVISYDGSNKYYADSVKGRFTISRDNSKNTLYLQMNSLRAEDTAVYYCARSGGQTHRRSMDVWGQGTTVTVSS
VL: EIVLTQSPATLSLSPGERATLSCRASQSVSRYLAWYQQKPGQAPRLLIYDASNRATGIPARFSGSGSGTDFTLTISSLEPEDFAVYYCQQGNNWPPTFGGGTKVEIK
B6: BIIB-12-1318 (antibody, V domains shown)
VH: QVQLVESGGGVVQPGRSLRLSCAASGFTFSSYGMHWVRQAPGKGLEWVAVISYDGSNKYYADSVKGRFTISRDNSKNTLYLQMNSLRAEDTAVYYCARKGDYRSGSYSGRAFGIWGQGTMVTVSS
VL: EIVLTQSPATLSLSPGERATLSCRASQSVSSYLAWYQQKPGQAPRLLIYDASNRATGIPARFSGSGSGTDFTLTISSLEPEDFAVYYCQQLNNWPPTFGGGTKVEIK
B7: BIIB-12-891 (antibody, V domains shown)
VH: QVQLVQSGAEVKKPGASVKVSCKASGYTFTSYYIHWVRQAPGQGLEWMGIINPSGGSTSYAQKFQGRVTMTRDTSTSTVYMELSSLRSEDTAVYYCARASIYRGLGAFDIWGQGTMVTVSS
VL: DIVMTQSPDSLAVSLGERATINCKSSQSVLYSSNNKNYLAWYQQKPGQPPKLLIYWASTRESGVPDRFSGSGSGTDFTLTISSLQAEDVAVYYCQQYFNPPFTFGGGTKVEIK
B8: BIIB-12-1310 (antibody, V domains shown)
VH: EVQLVESGGGLVKPGGSLRLSCAASGFTFSSYSMNWVRQAPGKGLEWVSSISSSSSYIYYADSVKGRFTISRDNAKNSLYLQMNSLRAEDTAVYYCARLGGYGSSQRYFDLWGRGTLVTVSS
VL: EIVLTQSPATLSLSPGERATLSCRASQSVSRYLAWYQQKPGQAPRLLIYDASNRATGIPARFSGSGSGTDFTLTISSLEPEDFAVYYCEQASNWPPTFGGGTKVEIK
B9: BIIB-12-899 (antibody, V domains shown)
VH: QVQLVQSGAEVKKPGASVKVSCKASGYTFTSYYMHWVRQAPGQGLEWMGIINPSGGSTSYAQKFQGRVTMTRDTSTSTVYMELSSLRSEDTAVYYCARGPRTSSPLYFDLWGRGTLVTVSS
VL: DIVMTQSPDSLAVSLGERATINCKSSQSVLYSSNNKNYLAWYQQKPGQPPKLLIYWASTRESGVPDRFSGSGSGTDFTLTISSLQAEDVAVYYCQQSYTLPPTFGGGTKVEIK
B10: BIIB-12-1315 (antibody, V domains shown)
VH: QVQLVQSGAEVKKPGASVKVSCKASGYTFTSYYMVWVRQAPGQGLEWMGIINPSGGSTSYAQKFQGRVTMTRDTSTSTVYMELSSLRSEDTAVYYCARGRPSSKRVTYFDYWGQGTLVTVSS
VL: EIVMTQSPATLSVSPGERATLSCRASQSVSSNLAWYQQKPGQAPRLLIYGASTRATGIPARFSGSGSGTEFTLTISSLQSEDFAVYYCQQVFNWPPWTFGGGTKVEIK
B11: BIIB-12-913 (antibody, V domains shown)
VH: QVQLVQSGAEVKKPGASVKVSCKASGYTFTSYGISWVRQAPGQGLEWMGWISAYNGNTNYAQKLQGRVTMTTDTSTSTAYMELRSLRSDDTAVYYCARGGVSRFWGQGTLVTVSS
VL: EIVMTQSPATLSVSPGERATLSCRASQSVSSNLAWYQQKPGQAPRLLIYGASTRATGIPARFSGSGSGTEFTLTISSLQSEDFAVYYCQQYAPYPPLTFGGGTKVEIK
B12: BIIB-12-1319 (antibody, V domains shown)
VH: QVQLVESGGGVVQPGRSLRLSCAASGFTFSSYGMHWVRQAPGKGLEWVAVISYDGSNKYYADSVKGRFTISRDNSKNTLYLQMNSLRAEDTAVYYCARTGYHRSVYYWGQGTLVTVSS
VL: EIVMTQSPATLSVSPGERATLSCRASQSVSSNLAWYQQKPGQAPRLLIYGASTRATGIPARFSGSGSGTEFTLTISSLQSEDFAVYYCQQASNFPPTFGGGTKVEI
B13: BIIB-12-1293 (antibody, V domains shown)
VH: QVQLVQSGAEVKKPGASVKVSCKASGYTFTSYYMHWVRQAPGQGLEWMGIINPSGGSTSYAQKFQGRVTMTRDTSTSTVYMELSSLRSEDTAVYYCARGSGGKHRGLDVWGQGTMVTVSS
VL: DIQMTQSPSSVSASVGDRVTITCRASQGISSWLAWYQQKPGKAPKLLIYAASSLQSGVPSRFSGSGSGTDFTLTISSLQPEDFATYYCQQANIFPFTFGGGTKVEIK
B14: BIIB-12-1317 (antibody, V domains shown)
VH: QVQLVESGGGVVQPGRSLRLSCAASGFTFSSYGMHWVRQAPGKGLEWVAVISYDGSNKYYADSVKGRFTISRDNSKNTLYLQMNSLRAEDTAVYYCARGVGGHDTRWGQGTLVTVSS
VL: DIQMTQSPSSVSASVGDRVTITCRASQGISSWLAWYQQKPGKAPKLLIYAASSLQSGVPSRFSGSGSGTDFTLTISSLQPEDFATYYCQQRHSLPPTFGGGTKVEIK
B15: BIIB-12-1324 (antibody, V domains shown)
VH: QVQLVQSGAEVKKPGASVKVSCKASGYTFTSYYMVWVRQAPGQGLEWMGIINPSGGSTSYAQKFQGRVTMTRDTSTSTVYMELSSLRSEDTAVYYCARLPRYSKRGLDVWGQGTMVTVSS
VL: EIVMTQSPATLSLSPGERATLSCRASQSVSSYLAWYQQKPGQAPRLLIYDSSNRATGIPARFSGSGSGTDFTLTISSLEPEDFAVYYCQQLVSWPTFGGGTKVEIK
B16: BIIB-12-921 (antibody, V domains shown)
VH: QVQLVESGGGVVQPGRSLRLSCAASGFTFSSYGMHWVRQAPGKGLEWVAVISYDGSNKYYADSVKGRFTISRDNSKNTLYLQMNSLRAEDTAVYYCAKVGDRGTRAFDPWGQGTLVTVSS
VL: DIQMTQSPSSVSASVGDRVTITCRASQGISRWLAWYQQKPGKAPKLLIYAASSLQSGVPSRFSGSGSGTDFTLTISSLQPEDFATYYCQQGNVFPLTFGGGTKVEIK
B17: BIIB-12-909 (antibody, V domains shown)
VH: QVQLVESGGGVVQPGRSLRLSCAASGFTFSSYGMHWVRQAPGKGLEWVAVISYDGSNKYYADSVKGRFTISRDNSKNTLYLQMNSLRAEDTAVYYCAKGKHRRRSFDIWGQGTMVTVSS
VL: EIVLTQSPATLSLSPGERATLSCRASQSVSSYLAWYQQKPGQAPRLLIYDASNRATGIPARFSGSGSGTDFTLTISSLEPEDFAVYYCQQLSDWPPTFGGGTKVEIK
B18: BIIB-12-936 (antibody, V domains shown)
VH: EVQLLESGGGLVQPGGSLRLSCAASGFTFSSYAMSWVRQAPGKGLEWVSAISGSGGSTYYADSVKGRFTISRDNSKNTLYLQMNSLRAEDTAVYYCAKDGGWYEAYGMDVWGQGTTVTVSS
VL: EIVMTQSPATLSVSPGERATLSCRASQSVSSNLAWYQQKPGQAPRLLIYGASTRATGIPARFSGSGSGTEFTLTISSLQSEDFAVYYCQQSHNLPPTFGGGTKVEIK
B19: BIIB-12-917 (antibody, V domains shown)
VH: EVQLVQSGAEVKKPGESLKISCKGSGYSFTTYWIGWVRQMPGKGLEWMGIIYPGDSDTRYSPSFQGQVTISADKSISTAYLQWSSLKASDTAMYYCARGRFRPRGRFDYWGQGTLVTVSS
VL: EIVMTQSPATLSVSPGERATLSCRASQSVSSNLAWYQQKPGQAPRLLIYGASTRATGIPARFSGSGSGTEFTLTISSLQSEDFAVYYCQQLFNHPPTFGGGTKVEIK
B20: BIIB-12-1306 (antibody, V domains shown)
VH: QVQLQESGPGLVKPSQTLSLTCTVSGGSISSGGYYWSWIRQHPGKGLEWIGSIYYSGSTYYNPSLKSRVTISVDTSKNQFSLKLSSVTAADTAVYYCARGAGGSAPWGQGTLVTVSS
VL: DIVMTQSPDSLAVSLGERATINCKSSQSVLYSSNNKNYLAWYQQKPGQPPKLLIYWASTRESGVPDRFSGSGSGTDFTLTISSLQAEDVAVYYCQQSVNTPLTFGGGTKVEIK
B21: BIIB-12-914 (antibody, V domains shown)
VH: QVQLVQSGAEVKKPGASVKVSCKASGYTFTSYYMHWVRQAPGQGLEWMGIINPSGGSTSYAQKFQGRVTMTRDTSTSTVYMELSSLRSEDTAVYYCARAPRYRGTMDVWGQGTTVTVSS
VL: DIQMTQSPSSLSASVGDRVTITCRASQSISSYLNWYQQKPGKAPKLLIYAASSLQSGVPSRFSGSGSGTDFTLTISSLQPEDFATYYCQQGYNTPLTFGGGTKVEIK

For the experiment, the target named is T1, FX zymogen. Nature of the experiment: BLI. In general terms: Biolayer interferometry detects binding as a change in optical thickness at a sensor tip.
In the case of B1, the Kd – broadly, the constant that tells how readily two partners part at equilibrium – worked out at 38.8 nM. As to B2, the Kd amounted to 17.8 nM.

The molecule B3 registered a dissociation constant (Kd) of 65.5 nM. Molecule B4 had a Kd of 33.2 nM. Turning to B5, the dissociation constant (Kd) came to 26.8 nM. For B6, the Kd was 56.1 nM. B7 had an equilibrium dissociation constant (Kd) of 65.2 nM.

In turn, B8 came in with a dissociation constant (Kd) of 46.1 nM. As for B9, binding was put at a Kd of 34.2 nM.

Take B10: binding was characterised by a dissociation constant (Kd) of 53.2 nM. In the case of B11, binding was characterised by a dissociation constant (Kd) of 78.5 nM. B12: binding was put at a Kd of 31 nM. On to B13, for which the Kd is 26 nM. The molecule B14 registered a Kd of 27.1 nM. The molecule B15 displayed a Kd of 67.7 nM.

B16 displayed a Kd of 23.1 nM.

Regarding B17, the affinity, expressed as Kd, was 69.7 nM. B18 yielded an equilibrium dissociation constant (Kd) of 66 nM. The molecule B19 came in with a Kd of 31.5 nM. The result for B20 reads 47 nM.

For B21, binding was put at a Kd of 48.1 nM.
